According to patent US6635429, “Heterodimeric nuclear receptors proteins, genes encoding same, and usage thereof” (Institut National de la Sante et de la Recherche Medicale):

T1: RXRα (yeast) (Mus musculus, UniProt P28700 SEQ:1-467)
T1 sequence: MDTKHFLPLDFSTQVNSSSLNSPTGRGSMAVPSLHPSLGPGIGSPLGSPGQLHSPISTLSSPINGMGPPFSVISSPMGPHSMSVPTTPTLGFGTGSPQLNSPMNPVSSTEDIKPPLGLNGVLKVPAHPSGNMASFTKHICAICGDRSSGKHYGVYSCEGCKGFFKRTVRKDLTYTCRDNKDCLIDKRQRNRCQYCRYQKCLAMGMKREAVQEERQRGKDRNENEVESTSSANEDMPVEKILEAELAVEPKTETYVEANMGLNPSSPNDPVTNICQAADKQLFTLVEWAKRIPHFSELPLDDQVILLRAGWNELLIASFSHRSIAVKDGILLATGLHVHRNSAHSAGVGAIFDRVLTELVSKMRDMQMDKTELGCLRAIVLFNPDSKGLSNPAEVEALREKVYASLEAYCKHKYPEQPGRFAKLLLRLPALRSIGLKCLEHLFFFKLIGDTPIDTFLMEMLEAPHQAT

T2: RARα1/RXRα heterodimer (yeast) (Homo sapiens/Mus musculus, UniProt P10276;P28700 P10276:1-462,P28700:1-467)
T2 sequence 1: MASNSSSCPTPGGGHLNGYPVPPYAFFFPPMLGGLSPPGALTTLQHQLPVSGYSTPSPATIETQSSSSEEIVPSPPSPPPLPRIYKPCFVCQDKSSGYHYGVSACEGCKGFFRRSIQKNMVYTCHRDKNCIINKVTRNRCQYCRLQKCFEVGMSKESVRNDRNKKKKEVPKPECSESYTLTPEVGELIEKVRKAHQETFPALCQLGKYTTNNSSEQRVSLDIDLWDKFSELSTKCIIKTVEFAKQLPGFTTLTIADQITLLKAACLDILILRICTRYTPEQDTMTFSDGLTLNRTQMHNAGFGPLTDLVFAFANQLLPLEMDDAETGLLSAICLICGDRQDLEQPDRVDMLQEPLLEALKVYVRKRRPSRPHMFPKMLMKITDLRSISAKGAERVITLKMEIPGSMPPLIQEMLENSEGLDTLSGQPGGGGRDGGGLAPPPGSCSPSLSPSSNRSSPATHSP
T2 sequence 2: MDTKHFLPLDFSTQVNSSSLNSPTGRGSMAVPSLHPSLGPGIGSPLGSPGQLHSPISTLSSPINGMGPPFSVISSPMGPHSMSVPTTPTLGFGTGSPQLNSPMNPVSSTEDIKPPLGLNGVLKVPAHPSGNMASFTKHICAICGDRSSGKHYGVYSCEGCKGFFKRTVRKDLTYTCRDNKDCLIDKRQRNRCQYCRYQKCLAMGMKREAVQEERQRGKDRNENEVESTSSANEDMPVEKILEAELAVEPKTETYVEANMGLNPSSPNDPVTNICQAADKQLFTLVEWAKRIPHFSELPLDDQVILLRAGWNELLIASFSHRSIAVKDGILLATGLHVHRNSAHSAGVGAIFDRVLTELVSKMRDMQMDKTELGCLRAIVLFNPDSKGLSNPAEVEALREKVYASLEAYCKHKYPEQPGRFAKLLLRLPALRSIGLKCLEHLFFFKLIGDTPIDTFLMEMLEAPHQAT


Assays:
Conditions in all cases: protein: extract; tags: yeast-expressed
[1] = target: T1, RXRα (yeast); assay: cell_activity; yeast, 9-cis RA
Description: (§1) FIG. 13A, Sequences of the response elements used in this study consisting of a direct repeat of a hexamer sequence spaced by one to five base pairs (DR1–DR5), or an inverted repeat of the same hexamer with no spacing (IR0). The hexamer repeats are indicated by arrows and the spacer sequences are presented in lower case. FIG. 13B, Transactivation of URA3 reporter genes containing the different elements by homodimers and heterodimers of RARα and RXRα. The sequences represented in FIG. 13A were cloned into the promoter of a URA3 reporter gene carried on a centromeric plasmid to generate the DRn-URA3 reporter series and IR0-URA3. The reporters were introduced into a yeast strain containing multicopy vectors expressing RARα, RXRα or no receptor. […] "Control" indicates the basal reporter activity in the absence of receptors (using "empty" expression vectors), and the experiments using only one receptor were performed in the presence of the corresponding "empty" vector. The white, hatched and black columns indicate the reporter activity in the presence of no ligand, all-trans RA and 9-cis RA, respectively. The reporter activities are given as units of OMPdecase activity per minute per mg protein, and the values represent the average of at least 2 experiments using at least 2 different clones per experiment. […] Similar amounts of each probe (50, 000 cpm) were used in the assays.

[2] = target: T2, RARα1/RXRα heterodimer (yeast); assay: cell_activity; yeast URA3 reporter, 500 nM 9-cis RA
Description: as §1

[3] = target: T2, RARα1/RXRα heterodimer (yeast); assay: cell_activity; yeast, 500 nM 9-cis RA
Description: as §1

[4] = target: T1, RXRα (yeast); assay: cell_activity; yeast, ligand dependent; low absolute activity
Description: as §1

[5] = target: T2, RARα1/RXRα heterodimer (yeast); assay: cell_activity; yeast, 500 nM 9-cis RA; low absolute activity
Description: as §1

Binder | activity [2] [fold over control] | activity [3] [fold over control] | also measured
DR1 (dsDNA) DNA 1: AGGTCAGAGGTCA DNA 2: TGACCTCTGACCT | 36 | – | activity [1]: ≥ 30 fold
DR5 (dsDNA) DNA 1: AGGTCAGCGAGAGGTCA DNA 2: TGACCTCTCGCTGACCT | 60 | – | –
DR2 (dsDNA) DNA 1: AGGTCAGCAGGTCA DNA 2: TGACCTGCTGACCT | – | ~10 | –
DR3 (dsDNA) DNA 1: AGGTCAGCGAGGTCA DNA 2: TGACCTCGCTGACCT | – | ~10 | –
DR4 (dsDNA) DNA 1: AGGTCAGCGAAGGTCA DNA 2: TGACCTTCGCTGACCT | – | ~10 | –
IR0 (dsDNA) DNA 1: AGGTCATGACCT DNA 2: AGGTCATGACCT | – | – | activity [4]: 20 fold over control; activity [5]: 40 fold over control
